{
  "source": "paper PMC8010718",
  "about": "“Direct coupling of oligomerization and oligomerization-driven endocytosis of the dopamine transporter to its conformational mechanics and activity” (The Journal of Biological Chemistry, 2021)",
  "key": {"[1]": {"target": "the molecule itself", "assay": "SDS-resistant oligomers on SDS-PAGE and Western blot; PAE cells stably expressing the tagged transporter, incubated with vehicle (DMSO), AIM-100 or ALs (20 μM, 2 h, 37 °C), with or without cocaine; lysis in TGH with 1% deoxycholate; Laemmli buffer 5 min 95 °C; 7.5% SDS-PAGE; GFP antibody"}, "[2]": {"target": "the molecule itself", "assay": "SDS-resistant oligomers on SDS-PAGE and Western blot; striatal synaptosomes of HA-DAT knock-in mice with vehicle, AIM-100 or ALs (20-40 μM, 2 h, 37 °C) in KRHG or KRHG/F12 (1:1); lysates in Laemmli buffer 30 min 42 °C; DAT antibody"}},
  "data": [
    {"protein": "YFP- and HA-epitope tagged dopamine transporter (YFP-HA-DAT), wild type (natural protein, human, UniProt Q01959 1-620, looked up, dopamine transporter (DAT), human; also called WT YFP-HA-DAT; wtDAT; source: PAE cells, stably expressing, in intact cells and in lysate) MSKSKCSVGLMSSVVAPAKEPNAVGPKEVELILVKEQNGVQLTSSTLTNPRQSPVEAQDRETWGKKIDFLLSVIGFAVDLANVWRFPYLCYKNGGGAFLVPYLLFMVIAGMPLFYMELALGQFNREGAAGVWKICPILKGVGFTVILISLYVGFFYNVIIAWALHYLFSSFTTELPWIHCNNSWNSPNCSDAHPGDSSGDSSGLNDTFGTTPAAEYFERGVLHLHQSHGIDDLGPPRWQLTACLVLVIVLLYFSLWKGVKTSGKVVWITATMPYVVLTALLLRGVTLPGAIDGIRAYLSVDFYRLCEASVWIDAATQVCFSLGVGFGVLIAFSSYNKFTNNCYRDAIVTTSINSLTSFSSGFVVFSFLGYMAQKHSVPIGDVAKDGPGLIFIIYPEAIATLPLSSAWAVVFFIMLLTLGIDSAMGGMESVITGLIDEFQLLHRHRELFTLFIVLATFLLSLFCVTNGGIYVFTLLDHFAAGTSILFGVLIEAIGVAWFYGVGQFSDDIQQMTGQRPSLYWRLCWKLVSPCFLLFVVVVSIVTFRPPHYGAYIFPDWANALGWVIATSSMAMVPIYAAYKFCSLPGSFREKLAYAIAPEKDRELVDRGEVRQFTLRHWLKV", "values": [
      {"measurement": "stoichiometry N", "setting": "[1]", "result": 3}
    ]},
    {"protein": "endogenous HA-DAT of HA-DAT knock-in mice (natural protein, mouse, UniProt Q61327 1-619, looked up, also called endogenous mouse HA-DAT; source: endogenous, striatal synaptosomes from HA-DAT knock-in mice, in lysate) MSKSKCSVGPMSSVVAPAKEPNAVGPREVELILVKEQNGVQLTNSTLINPPQTPVEVQERETWSKKIDFLLSVIGFAVDLANVWRFPYLCYKNGGGAFLVPYLLFMVIAGMPLFYMELALGQFNREGAAGVWKICPVLKGVGFTVILISFYVGFFYNVIIAWALHYFFSSFTMDLPWIHCNNTWNSPNCSDAHSSNSSDGLGLNDTFGTTPAAEYFERGVLHLHQSRGIDDLGPPRWQLTACLVLVIVLLYFSLWKGVKTSGKVVWITATMPYVVLTALLLRGVTLPGAMDGIRAYLSVDFYRLCEASVWIDAATQVCFSLGVGFGVLIAFSSYNKFTNNCYRDAIITTSINSLTSFSSGFVVFSFLGYMAQKHNVPIRDVATDGPGLIFIIYPEAIATLPLSSAWAAVFFLMLLTLGIDSAMGGMESVITGLVDEFQLLHRHRELFTLGIVLATFLLSLFCVTNGGIYVFTLLDHFAAGTSILFGVLIEAIGVAWFYGVQQFSDDIKQMTGQRPNLYWRLCWKLVSPCFLLYVVVVSIVTFRPPHYGAYIFPDWANALGWIIATSSMAMVPIYATYKFCSLPGSFREKLAYAITPEKDRQLVDRGEVRQFTLRHWLLV", "values": [
      {"measurement": "stoichiometry N", "setting": "[2]", "result": 3}
    ]}
  ]
}
